Data on 14 molecules can be found in patent US20180118786A1 (ECOLE POLYTECHNIQUE FEDERALE DE LAUSANNE EPFL, published 2018).

Starred links: 1 amine or outer side, 2 acyl side, 3 side chain; linkers in the order of their positions; H or OH if unused. Positions of bridges follow the written chain, without caps; N, C: chain ends. Non-standard residues stand in square brackets, D forms with d. No end group written: not given here. TATA = O=C(CC[*:1])N1CN(C(=O)CC[*:2])CN(C(=O)CC[*:3])C1; Phe(3-F) = N[C@@H](Cc1cccc(F)c1)C(=O)O; Phe(4-F) = N[C@@H](Cc1ccc(F)cc1)C(=O)O; 1Nal = N[C@@H](Cc1cccc2ccccc12)C(=O)O; β3hR = N=C(N)NCCC[C@H](N)CC(=O)O Some results are limits rather than exact numbers.

Assay [1] has as its target T1, human β-FXIIa (HFXIIAB; Molecular Innovations) (human, UniProt P00748 354-362; P00748 373-615, limits assumed).
T1 construct: domain: catalytic domain; Bought; also called human b-FXIIa; human FXIIa
Briefly: protease inhibition assay.

The target in assay [2] is T2, mouse FXIIa (mouse, UniProt Q80YC5 20-597, limits assumed).
T2 construct: also called mouse α-FXIIa (MFXIIA; Molecular Innovations)
T2 sequence (looked up): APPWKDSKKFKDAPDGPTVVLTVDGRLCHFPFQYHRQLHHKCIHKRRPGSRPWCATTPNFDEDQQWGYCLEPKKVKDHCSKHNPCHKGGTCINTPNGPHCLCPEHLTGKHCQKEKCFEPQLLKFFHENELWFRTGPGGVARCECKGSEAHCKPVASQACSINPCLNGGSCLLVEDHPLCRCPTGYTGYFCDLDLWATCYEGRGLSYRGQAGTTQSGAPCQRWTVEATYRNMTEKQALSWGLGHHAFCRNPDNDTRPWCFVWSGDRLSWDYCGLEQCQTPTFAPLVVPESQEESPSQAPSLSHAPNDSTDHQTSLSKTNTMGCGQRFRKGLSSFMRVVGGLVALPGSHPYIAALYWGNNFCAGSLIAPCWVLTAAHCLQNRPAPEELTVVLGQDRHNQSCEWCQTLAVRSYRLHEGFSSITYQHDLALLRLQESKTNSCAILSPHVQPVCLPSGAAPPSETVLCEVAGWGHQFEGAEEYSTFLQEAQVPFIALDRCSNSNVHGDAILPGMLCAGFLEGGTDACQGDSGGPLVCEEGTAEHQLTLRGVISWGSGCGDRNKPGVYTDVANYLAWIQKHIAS
Briefly: protease inhibition assay.

In assay [3] the target is T1, human β-FXIIa (HFXIIAB; Molecular …). As to the kind of experiment: protease inhibition assay. The source holds these as a separate data set.
Assay [4] shares this target. Briefly: protease inhibition assay (Table in FIG. 6).
For assay [5] the target is unchanged. As to the kind of experiment: protease inhibition assay (FIG. 6).
Assay [6] has the same target. Briefly: protease inhibition assay. The source holds these as a separate data set.

T1 sequence (P00748 373-615 limits assumed, one chain of several): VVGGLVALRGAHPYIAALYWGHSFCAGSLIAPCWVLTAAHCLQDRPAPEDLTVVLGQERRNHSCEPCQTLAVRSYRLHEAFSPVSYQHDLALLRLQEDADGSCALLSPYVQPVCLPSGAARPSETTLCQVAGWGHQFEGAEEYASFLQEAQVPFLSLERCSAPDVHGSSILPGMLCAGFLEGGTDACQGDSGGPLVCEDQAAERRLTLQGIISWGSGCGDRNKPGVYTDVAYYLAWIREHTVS

B1: JS33 (rsCF^4…^bCR) (peptide)
peptide: H-[dR][dS]C[Phe(4-F)]RLPCHQL[β3hR]CR-NH2
modifications: linker 3-8-13 via TATA
SMILES: CC(C)C[C@@H]1NC(=O)[C@H](CCC(N)=O)NC(=O)[C@H](Cc2c[nH]cn2)NC(=O)[C@@H]2CSCCC(=O)N3CN(CN(C3)C(=O)CCSC[C@H](NC(=O)[C@@H](CO)NC(=O)[C@H](N)CCCNC(=N)N)C(=O)N[C@@H](Cc3ccc(F)cc3)C(=O)N[C@@H](CCCNC(=N)N)C(=O)N[C@@H](CC(C)C)C(=O)N3CCC[C@H]3C(=O)N2)C(=O)CCSC[C@@H](C(=O)N[C@@H](CCCNC(=N)N)C(N)=O)NC(=O)C[C@H](CCCNC(=N)N)NC1=O
notes: rs is D-Arg-D-Ser; F^4F is 4-fluoro-phenylalanine
Usually Ki stands for the equilibrium dissociation constant of an inhibitor or competing ligand from its target. Higher therefore signals a looser hold on the target. B1: the inhibitory constant (Ki) in assay [1] was found to be 0.36 nM.

B2: JS35 (rsCF^4…^bCR) (peptide)
peptide: H-[dR][dS]C[Phe(4-F)]RLPCRQL[β3hR]CR-NH2
modifications: linker 3-8-13 via TATA
SMILES: CC(C)C[C@@H]1NC(=O)[C@H](CCC(N)=O)NC(=O)[C@H](CCCNC(=N)N)NC(=O)[C@@H]2CSCCC(=O)N3CN(CN(C3)C(=O)CCSC[C@H](NC(=O)[C@@H](CO)NC(=O)[C@H](N)CCCNC(=N)N)C(=O)N[C@@H](Cc3ccc(F)cc3)C(=O)N[C@@H](CCCNC(=N)N)C(=O)N[C@@H](CC(C)C)C(=O)N3CCC[C@H]3C(=O)N2)C(=O)CCSC[C@@H](C(=O)N[C@@H](CCCNC(=N)N)C(N)=O)NC(=O)C[C@H](CCCNC(=N)N)NC1=O
B2: in assay [1], the affinity, expressed as Ki, was 0.32 nM.

B3: JS34 (rsCF^4…) (peptide)
peptide: H-[dR][dS]C[Phe(4-F)]RLPCHQLRCR-NH2
modifications: linker 3-8-13 via TATA
SMILES: CC(C)C[C@@H]1NC(=O)[C@H](CCC(N)=O)NC(=O)[C@H](Cc2c[nH]cn2)NC(=O)[C@@H]2CSCCC(=O)N3CN(CN(C3)C(=O)CCSC[C@H](NC(=O)[C@@H](CO)NC(=O)[C@H](N)CCCNC(=N)N)C(=O)N[C@@H](Cc3ccc(F)cc3)C(=O)N[C@@H](CCCNC(=N)N)C(=O)N[C@@H](CC(C)C)C(=O)N3CCC[C@H]3C(=O)N2)C(=O)CCSC[C@@H](C(=O)N[C@@H](CCCNC(=N)N)C(N)=O)NC(=O)[C@H](CCCNC(=N)N)NC1=O
The molecule B3 gave a Ki in assay [1] of 0.64 nM.

B4: JS33-R (rsCF^4…^bC) (peptide)
peptide: H-[dR][dS]C[Phe(4-F)]RLPCHQL[β3hR]C-NH2
modifications: linker 3-8-13 via TATA
SMILES: CC(C)C[C@@H]1NC(=O)[C@H](CCC(N)=O)NC(=O)[C@H](Cc2c[nH]cn2)NC(=O)[C@@H]2CSCCC(=O)N3CN(CN(C3)C(=O)CCSC[C@H](NC(=O)[C@@H](CO)NC(=O)[C@H](N)CCCNC(=N)N)C(=O)N[C@@H](Cc3ccc(F)cc3)C(=O)N[C@@H](CCCNC(=N)N)C(=O)N[C@@H](CC(C)C)C(=O)N3CCC[C@H]3C(=O)N2)C(=O)CCSC[C@@H](C(N)=O)NC(=O)C[C@H](CCCNC(=N)N)NC1=O
The molecule B4 showed a Ki in assay [1] of 0.4 nM.

B5: JS17m (FXII618, Arg8 to His) (peptide)
peptide: H-RCFRLPCHQLRCR-NH2
modifications: linker 2-7-12 via TATA
SMILES: CC(C)C[C@@H]1NC(=O)[C@H](CCC(N)=O)NC(=O)[C@H](Cc2c[nH]cn2)NC(=O)[C@@H]2CSCCC(=O)N3CN(CN(C3)C(=O)CCSC[C@H](NC(=O)[C@@H](N)CCCNC(=N)N)C(=O)N[C@@H](Cc3ccccc3)C(=O)N[C@@H](CCCNC(=N)N)C(=O)N[C@@H](CC(C)C)C(=O)N3CCC[C@H]3C(=O)N2)C(=O)CCSC[C@@H](C(=O)N[C@@H](CCCNC(=N)N)C(N)=O)NC(=O)[C@H](CCCNC(=N)N)NC1=O
notes: also called Arg8→His (H)
On to B5, for which the Ki in assay [2] was determined as 80 nM; in assay [3], 21.6 nM. Regarding RC[Phe(3-F)]RLPCRQLRCRW-NH2 (linker 2-7-12 via TATA) [peptide 57 (peptide 2, fluorine in meta-position of Phe3)], the inhibitory constant (Ki) in assay [4] is < 100 nM.

For H-RC[1Nal]RLPCRQLRCRW-NH2 (linker 2-7-12 via TATA) [FXII618 variant with F in position three replaced by 1-naphthylalanine], in assay [4], the Ki is < 50 nM. H-RC[3‑benzothienylalanine]RLPCRQLRCRW-NH2 (linker 2-7-12 via TATA) [FXII618 variant with F in position three replaced by 3-benzothienylalanine]: the Ki in assay [4] was < 50 nM. H-[dR][dS]CFRLPCHQL[β3hR]CR-NH2 (linker 3-8-13 via TATA) [JS36 (rs…^bCR)] returned a Ki in assay [1] of 1 nM.

B6: FXII618 variant with P in position six replaced by S (peptide)
peptide: RCFRLSCRQLRCRW-NH2
modifications: linker 2-7-12 via TATA; N-terminus assumed
SMILES: CC(C)C[C@@H]1NC(=O)[C@H](CCC(N)=O)NC(=O)[C@H](CCCNC(=N)N)NC(=O)[C@@H]2CSCCC(=O)N3CN(CN(C3)C(=O)CCSC[C@H](NC(=O)[C@@H](N)CCCNC(=N)N)C(=O)N[C@@H](Cc3ccccc3)C(=O)N[C@@H](CCCNC(=N)N)C(=O)N[C@@H](CC(C)C)C(=O)N[C@@H](CO)C(=O)N2)C(=O)CCSC[C@@H](C(=O)N[C@@H](CCCNC(=N)N)C(=O)N[C@@H](Cc2c[nH]c3ccccc23)C(N)=O)NC(=O)[C@H](CCCNC(=N)N)NC1=O
In the case of B6, the Ki in assay [5] was < 100 nM.

B7: peptide 4 (peptide 2, Phe3 to tyrosine) (peptide)
peptide: RCYRLPCRQLRCRW-NH2
modifications: linker 2-7-12 via TATA; N-terminus assumed
SMILES: CC(C)C[C@@H]1NC(=O)[C@H](CCC(N)=O)NC(=O)[C@H](CCCNC(=N)N)NC(=O)[C@@H]2CSCCC(=O)N3CN(CN(C3)C(=O)CCSC[C@H](NC(=O)[C@@H](N)CCCNC(=N)N)C(=O)N[C@@H](Cc3ccc(O)cc3)C(=O)N[C@@H](CCCNC(=N)N)C(=O)N[C@@H](CC(C)C)C(=O)N3CCC[C@H]3C(=O)N2)C(=O)CCSC[C@@H](C(=O)N[C@@H](CCCNC(=N)N)C(=O)N[C@@H](Cc2c[nH]c3ccccc23)C(N)=O)NC(=O)[C@H](CCCNC(=N)N)NC1=O
notes: Number tied to residue by the order of the list
Regarding B7, the “fold reduction of activity vs peptide 2” value in assay [6] is > 2 fold. Also, the Ki in assay [4] was < 100 nM.

B8: peptide 18 (peptide 2, Pro6 to leucine) (peptide)
peptide: RCFRLLCRQLRCRW-NH2
modifications: linker 2-7-12 via TATA; N-terminus assumed
SMILES: CC(C)C[C@@H]1NC(=O)[C@H](CCC(N)=O)NC(=O)[C@H](CCCNC(=N)N)NC(=O)[C@@H]2CSCCC(=O)N3CN(CN(C3)C(=O)CCSC[C@H](NC(=O)[C@@H](N)CCCNC(=N)N)C(=O)N[C@@H](Cc3ccccc3)C(=O)N[C@@H](CCCNC(=N)N)C(=O)N[C@@H](CC(C)C)C(=O)N[C@@H](CC(C)C)C(=O)N2)C(=O)CCSC[C@@H](C(=O)N[C@@H](CCCNC(=N)N)C(=O)N[C@@H](Cc2c[nH]c3ccccc23)C(N)=O)NC(=O)[C@H](CCCNC(=N)N)NC1=O
On to B8, for which the “fold reduction of activity vs peptide 2” value in assay [6] was < 2 fold. The Ki in assay [5] was < 100 nM.

B9: peptide 5 (peptide 2, Phe3 to leucine) (peptide)
peptide: RCLRLPCRQLRCRW-NH2
modifications: linker 2-7-12 via TATA; N-terminus assumed
SMILES: CC(C)C[C@@H]1NC(=O)[C@H](CCC(N)=O)NC(=O)[C@H](CCCNC(=N)N)NC(=O)[C@@H]2CSCCC(=O)N3CN(CN(C3)C(=O)CCSC[C@H](NC(=O)[C@@H](N)CCCNC(=N)N)C(=O)N[C@@H](CC(C)C)C(=O)N[C@@H](CCCNC(=N)N)C(=O)N[C@@H](CC(C)C)C(=O)N3CCC[C@H]3C(=O)N2)C(=O)CCSC[C@@H](C(=O)N[C@@H](CCCNC(=N)N)C(=O)N[C@@H](Cc2c[nH]c3ccccc23)C(N)=O)NC(=O)[C@H](CCCNC(=N)N)NC1=O
notes: as for B7
B9: the “fold reduction of activity vs peptide 2” value in assay [6] is > 2 fold. Moreover, in assay [4], the Ki is < 100 nM.

B10: peptide 15 (peptide 2, Pro6 to alanine) (peptide)
peptide: RCFRLACRQLRCRW-NH2
modifications: linker 2-7-12 via TATA; N-terminus assumed
SMILES: CC(C)C[C@@H]1NC(=O)[C@H](CCCNC(=N)N)NC(=O)[C@H](Cc2ccccc2)NC(=O)[C@@H](NC(=O)[C@@H](N)CCCNC(=N)N)CSCCC(=O)N2CN3CN(C2)C(=O)CCSC[C@@H](C(=O)N[C@@H](CCCNC(=N)N)C(=O)N[C@@H](Cc2c[nH]c4ccccc24)C(N)=O)NC(=O)[C@H](CCCNC(=N)N)NC(=O)[C@H](CC(C)C)NC(=O)[C@H](CCC(N)=O)NC(=O)[C@H](CCCNC(=N)N)NC(=O)[C@H](CSCCC3=O)NC(=O)[C@H](C)NC1=O
With B10, the “fold reduction of activity vs peptide 2” value in assay [6] is < 2 fold. The inhibition constant Ki in assay [5] is < 100 nM.
